Reference: paper PMC8826447 (Nature Communications, 2022)
Ends that are not written are not given here. * marks the point of attachment. FITC = O=C1OC2(c3ccc(O)cc3Oc3cc(O)ccc32)c2ccc(NC(=S)*)cc21; βAla = NCCC(=O)O

Assays:
[1] = target: T1, ASF1a-NT domain (ASF1a residues 1–155) (human, UniProt Q9Y294 1-155); assay: fluorescence polarisation; competition: 63 nM ASF1a 1–155 with 5 nM FITC tracer peptide and rising unlabeled peptide (15.6 nM to 256 μM for the TLK2 peptide); 50 mM Tris pH 8.0, 100 mM NaCl, 10 mM MgCl2, 1.2 mM DTT, 0.012% Brij-35, 0.2 mg/ml BSA; 295 K; details: both partners purified
T1 construct: anti-silencing factor 1a (ASF1a), human, N-terminal immunoglobulin-like domain, residues 1-155; Cloned into pGEX4T-1 as an N-terminal GST fusion and eluted with glutathione; No cleavage step is described; the structures are described with ASF1a residues only (151-155 residues per chain); also called ASF1a 1–155; ASF1-NT; source: E. coli BL21 (DE3) Rosetta 2, purified (glutathione-Sepharose, SEC)

[2] = target: T1, ASF1a-NT domain (ASF1a residues 1–155); assay: differential scanning fluorimetry; melting temperature of ASF1a 1–155 with or without 160 μM TLK2 peptide; 20 mM HEPES, 250 mM NaCl, 0.1 mM TCEP, pH 7.5; SYPRO orange; ramp 4 to 95 °C; details: both partners purified

T1 sequence (Q9Y294 1-155): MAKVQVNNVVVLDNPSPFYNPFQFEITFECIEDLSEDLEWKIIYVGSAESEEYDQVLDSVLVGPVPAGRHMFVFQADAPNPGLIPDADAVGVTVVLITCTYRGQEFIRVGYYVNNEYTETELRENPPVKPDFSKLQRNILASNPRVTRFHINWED

Binder | EC50 [1] | increase of melting temperature (160 μM peptide) [2] | binding result [1]
EELHSLDPRRQELLEARFTGV (TLK2, human, residues 3-23; also called N-terminal TLK2 peptide; unlabeled TLK2 peptide; source: synthetic peptide (Genscript, >98% purity)) [TLK2 peptide spanning residues 3–23] | 2200 nM | ~5 °C | –
{FITC-βAla}-LHSLDPRRQELLEARFTG (TLK2, human, N-terminal stretch; also called fluorescently labeled TLK2 peptide; TLK2 fluorescent peptide; source: synthetic peptide (Tufts University Core Facility, purified by HPLC)) [fluorescein-labeled TLK2 tracer peptide (FITC-βAla-LHSLDPRRQELLEARFTG)] | – | – | binds
TIMPKDIQLARRIRGERA (also called Histone H3 peptide; source: synthetic peptide (Genscript, >98% purity)) [histone H3.1 peptide (ASF1-binding fragment)] | – | – | binds
